Data reported in paper PMC6563369, “Systematic unravelling of the inulin hydrolase from Bacillus amyloliquefaciens for efficient conversion of inulin to poly-(γ-glutamic acid)” (Biotechnology for Biofuels, 2019).

Columns and labels:
Assay in all cases: DNS reducing sugar assay, Lineweaver-Burk
Format in all cases: biochemical, Bacillus amyloliquefaciens
Details in all cases: 50 mM PBS pH 7.5, 55 °C, 20 min
[1] = substrate: OC[C@H]1O[C@@](CO)(O[C@H]2O[C@H](CO)[C@@H](O)[C@H](O)[C@H]2O)[C@@H](O)[C@@H]1O
Description: (§1) DNS reducing sugar assay, Lineweaver-Burk on CscA (inulin hydrolase)

[2] = substrate: OC[C@H]1O[C@H](OC[C@H]2O[C@H](OC[C@H]3O[C@H](O[C@]4(CO)O[C@H](CO)[C@@H](O)[C@@H]4O)[C@H](O)[C@@H](O)[C@@H]3O)[C@H](O)[C@@H](O)[C@H]2O)[C@H](O)[C@@H](O)[C@H]1O
Description: as §1

[3] = substrate: OC[C@H]1O[C@H](OC[C@H]2O[C@H](O[C@]3(CO)O[C@H](CO)[C@@H](O)[C@@H]3O)[C@H](O)[C@@H](O)[C@@H]2O)[C@H](O)[C@@H](O)[C@H]1O
Description: as §1

B1: CscA (inulin hydrolase) (Bacillus amyloliquefaciens DSM 7 = ATCC 23350) (protein)
chain: MDRIQQAEEALKKAEGKVKQRYRLGYHIMPRANWINDPNGLIQFKGEYHVFFQHHPFDENWGPMHWGHVKSKDLIHWEHLPIALAPGDAFDQSGCFSGSAVDDRGRLVLIYTGHNMIDPEKDLFYQTQNIAVSQDGAVFEKLQDNPVIAEPPEDSSRHFRDPKVWKHRGDWYMVVGNSTKENVGRVILYRSSDLRNWEYAGVLAQSDGHLGYMWECPDFFELGGKHVLLISPQGIEADGDSYKNLHQTGYLIGDYNDETNKFTHGAFKELDHGHDFYAVQTLLDDKGRRIAVGWMDMWESEMPTKADGWCGALTLPRELTLRDDHKLLMNPVEETKQLRKMKYRECAGRSVSGSYLAKTSEELLEVQVVYDVNDCDAETAGIKIRGLDEEELVLKYNLTDKKLTLDCTKMGKAKDGVRRVRMDASGKLALRIFIDRSSIEVFANHGEATMTSRIYPKEGRLGLELFSEKGAVKVEEFTYWTLKDIWKKS
notes: full-length ORF (1470 bp, 489 residues, no signal peptide), pET-28a BamHI/XhoI, His-tagged, expressed in E. coli BL21(DE3), Ni-NTA
Km [1]: 4.33 ± 0.03 mM
Vmax [1]: 1760 µmol/min/mg
kcat/Km [1]: 398000 ± 20000 M⁻¹ s⁻¹
Km [2]: 19.08 ± 0.09 mM
Vmax [2]: 687 µmol/min/mg
kcat/Km [2]: 36500 ± 667 M⁻¹ s⁻¹
Km [3]: 12.25 ± 0.07 mM
Vmax [3]: 724 µmol/min/mg
kcat/Km [3]: 57500 ± 1330 M⁻¹ s⁻¹
